Experimental data published in the supplement of paper PMC9170038.

System: MS2 coat protein
Assay: apparent KD of MS2 coat protein; designed switch direction (-1 OFF switch, 1 ON switch): 1; higher = weaker reporter binding
Outline: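 Apparent KD, taken as the median over clusters for each design, was obtained by curve-fitting normalised cluster fluorescence. Designed RNA switches had been transcribed on Illumina chips by stalled E. coli RNA polymerase and titrated with SNAP-549-labelled MS2 coat protein, doubling from 0.7 or 1.5 nM to 3 µM.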

[1] = input ligand: microRNA oligo, concentration not stated
[2] = Eterna round: R95, input ligand: FMN 200 uM
[3] = Eterna round: R95, input ligand: microRNA oligo, concentration not stated
[4] = Eterna round: R95, input ligand: none

Row | Sequence | apparent KD of MS2 coat protein (input ligand: FMN 200 uM) [nM] | apparent KD of MS2 coat protein [1] [nM] | apparent KD of MS2 coat protein (input ligand: none) [nM] | apparent KD of MS2 coat protein [2] [nM] | apparent KD of MS2 coat protein [3] [nM] | apparent KD of MS2 coat protein [4] [nM]
1 | AGAUGUUAAUCAGGAUAUGGGCACAUGAGGAUCACCCAUGUAAAGUAGAUACUAUGUGGUCAAGUCUAGAAGGGAUGGCUAACA [SameState NG2 #80] (Eterna round: R96, puzzle: Same State NG 2) | 433 | 282 | 279 |  |  | 
2 | UACAAUCUAUCUGAGGAUAUCAUGAUUAUAACAUGAGGAUCACCCAUGUGCAGGAAAACUGCAUAUGAGAAGGCAGAUAGAUUGU [salish99_ss2_r3_069] (puzzle: Same State 2) |  |  |  | 228 | 1630 | 110
3 | GUUACAUGAGGAUCACCCAUGUAUGUGUGGGAGUAAGUGUCUUAGGAUAUCUAGCAUUUAAUUUAAGAGAAGGAAGAUUGUUGU [JMF's solution 51] (Eterna round: R96, puzzle: Same State NG 3) | 79.7 | 59.9 | 84.1 |  |  | 
4 | GUAUCUUCAGGUUGCAAUGCUCGUCGGAUACAUGAGGAUCACCCAUGUUAUUAACCUGUGCUUGCGCGGGUAUGAUU [Photon Torp-01] (puzzle: Sensor for hsa-mir-208a) |  |  |  | 21.8 | 32.5 | 23.3
5 | GGUCCAGCCUGAGCUGGACCACAGCAUGUACAUGAGGAUCACCCAUGUCAUGUACAUGCUUUUUGUUUGUCUUAAAA [Sensorship 11 - Jieux - Sensor for hsa-mir-208a] (puzzle: Sensor for hsa-mir-208a) |  |  |  | 72.2 | 32.7 | 47.3
6 | UGGUAACAUGAGGAUCACCCAUGUCAAAUGAAUCGAGGAUAUGGGAAAGGAGAAGAGAAACUAGAAGGCGAAGUUG [Altered State 1-12 - Jieux - Same State 1] (puzzle: Same State 1) |  |  |  | 202 | 191 | 148
7 | GGAUGAUAGACAGGAUAUUGAAUGUAAUUAGGACAAGAAGGGUCAAUGAUUUAAACGACCAGUUACAUGAGGAUCACCCAUGUU [JR_SSNG1_Sub025] (Eterna round: R96, puzzle: Same State NG 1) | 44.9 | 38.1 | 49.1 |  |  | 
8 | UUGCGGGAUUGAGGAUAUUGAGUACAUAUGUUUAACAUGAGGAUCACCCAUGUGGGUUGCGGUAUCGAGAAGGUAACUUACUAC [salish99_SSNG2_r04_805] (Eterna round: R96, puzzle: Same State NG 2) |  | 75.5 |  |  |  | 
9 | GUUACAUGAGGAUCACCCAUGUAUGUGUGGGAGUAAGUGUCUUAGGAUAUCUGUUAUUUAAUAUAAGAGAAGGAAGAUUGUUGU [JMF's solution 44] (Eterna round: R96, puzzle: Same State NG 3) | 123 | 76.5 | 108 |  |  | 
10 | AGAAAGAAAACGCAGGAUAUGGAGCAUGAGACAUGAGGAUCACCCAUGUCAAAAGAAAAGAAGAACCAGAAGGGCGGGAAAGAAA [Default title] (puzzle: Same State 2) |  |  |  | 18.5 | 11.7 | 15.6
11 | AAUUAAUUAAUUAAUAUACAUGAGGAUCACCCAUGUAAGAUCAAGGAUAUCAGCUCGUUUAGAGCUGAGAAGGUGAUCACAUGU [SSNG3/16-A3] (Eterna round: R96, puzzle: Same State NG 3) | 447 | 156 | 302 |  |  | 
12 | GUACAAAUCAUAGGAUAUGGGCGGGAAUGCCGUCCAGAAGGAUGAACAUGAGGAUCACCCAUGUCCGGCCGCAAAUACGCGGCC [Xexeti] (Eterna round: R96, puzzle: Same State NG 1) | 62.6 | 140 | 209 |  |  | 
13 | AGUCCAGCGAAAGCUGGACAAAAGCAUGUACAUGAGGAUCACCCAUGUUCAUGUACAAGUUUUUUGCUCGUCUUAAA [JL mod - D95 - 13] (puzzle: Sensor for hsa-mir-208a) |  |  |  | 33.7 | 10.4 | 32
14 | AGUCCACGCUGACGUGGACAAAAGCAUGUACAUGAGGAUCACCCAUGUCAUGUACAAGCUUUUUGCUCGUCUUAAUA [Mat - hsa-mir-208a - Mod of JL - D43] (puzzle: Sensor for hsa-mir-208a) |  |  |  | 478 | 14.9 | 549
15 | AGCGAGAUAGGCGAGGAUAUGCUUUUUUGCACAUGAGGAUCACCCAUGUCUUUGUUUUUUGUUUUGCAGAAGGCGCAUUCUCUUU [ak unbound state multiloop] (Eterna round: R96, puzzle: Same State 2) | 46.1 | 15.8 | 26.1 |  |  | 
16 | GUUACAUGAGGAUCACCCAUGUGUGUGUGGGAGUGAGUGGCUUAGGAUAUCUAUGAUUUUAGUUAAGAGAAGGAGGAUUGUUGU [SS-NG3-LRO06] (Eterna round: R96, puzzle: Same State NG 3) | 365 | 322 | 380 |  |  | 

Row | Sequence | apparent KD of MS2 coat protein (input ligand: FMN 200 uM) [nM] | apparent KD of MS2 coat protein [1] [nM] | apparent KD of MS2 coat protein (input ligand: none) [nM] | apparent KD of MS2 coat protein [2] [nM] | apparent KD of MS2 coat protein [3] [nM] | apparent KD of MS2 coat protein [4] [nM]
17 | AGUCCAGCCUGAGCUGGACAAAAGCAUGUACAUGAGGAUCACCCAUGUCAUGUACAAGCUUUUUGCUCGUCUUAUUA [Mat - hsa-mir-208a - Mod of JL - D24] (puzzle: Sensor for hsa-mir-208a) |  |  |  | 694 | 16.3 | 722
18 | UAAAUAAAGUAAGGAUAUACAUGAGGAUCUCUCGUAGAAGGUACUAUACAUGAGGAUCACCCAUGUGCCGGUCAAUAGACUGGA [Mat - Same State NG 1 - JL mod - D9] (Eterna round: R96, puzzle: Same State NG 1) | 589 | 131 | 446 |  |  | 
19 | AACCAACAAAUAAAACAAGCGUGCUCGUCACAUGAGGAUCACCCAUGUUUAAGCGCUAUUCCUACUUCCUCAGCGCC [Ininceisa] (puzzle: Sensor for hsa-mir-208a) |  |  |  | 104 |  | 97.7
20 | GUAGCAUACCGAGGAUAUUCAUAUACAUGAGGAUCACCCAUGUUUAUAGGUCGAUUACGACCUUGGGAGAAGGCGGAAUGCUAC [Xeonanis - 20 Mod31] (Eterna round: R96, puzzle: Same State NG 2) | 10.8 | 9.68 | 13.9 |  |  | 
21 | AUAAAACAUGAGGAUCACCCAUGUCAACAAAGUCGAGGAUAUGGGCAAUUAAAAUAAGAACCAGAAGGCGAAUAAU [salish99_ss1_r3_025] (Eterna round: R96, puzzle: Same State 1) | 35.7 | 214 | 250 |  |  | 
22 | GCUAGGAUAUGACGAGGAUCACCCGUUAGAAGGAGCGAAAGCUAGGAUAUGACGAGGAUCACCCGUUAGAAGGAGCUGUCCUCU [pwkr ssNG3 DX 2xF5 +2xFMN.11] (Eterna round: R96, puzzle: Same State NG 3) | 200 | 80.1 | 111 |  |  | 
23 | AUCCUACAUGAGGAUCACCCAUGUGACGCCUCAAUAGGAUAUCGGGCCCAAAAUCGGGCACGAGAAGGAUUGAAGC [Aveso] (puzzle: Same State 1) |  |  |  | 85.2 | 172 | 163
24 | GCCGCAGGCUAAGGAUAUUGCGUGAUCACAUGAGGAUCACCCAUGUCAAUAUCGCUACGGAAGAGCAAGAAGGUAGCGCCGCAG [Eternabot solution 10] (Eterna round: R96, puzzle: Same State NG 2) | 188 | 182 | 127 |  |  | 
25 | UUGAGGAAUUAAGGAUAUUGAGUACAUAUGUUUAACAUGAGGAUCACCCAUGUGGGUUGCGGUAUCGAGAAGGUAAAUUACUAG [JL SSNG2 1.46] (Eterna round: R96, puzzle: Same State NG 2) | 141 | 83.8 | 168 |  |  | 
26 | GGUCCAGCUUUUGCUGGUCCUUCGCUUGCACAUGAGGAUCACCCAUGUCGUGUACAUGCUUCCUGCCCGUCUUUUUU [Photon Torp-17] (puzzle: Sensor for hsa-mir-208a) |  |  |  | 34.4 | 15.5 | 39.1
27 | GUACAGAUUAUAGGAUAUCACGUCGUUUAGACGUGAGAAGGAUAAUCCCACAUGAAUAUUAAUACAUGAGGAUCACCCAUGUAC [SSNG1/18-B3] (Eterna round: R96, puzzle: Same State NG 1) | 21.8 | 27.7 | 30.7 |  |  | 
28 | ACAUUUAGCUCGUGCACAUGAGGAUCACCCAUGUUCGGUUCACAGGAUAUCUAGUCAAACGGAUUGGAGAAGGGUGGCAGGAGC [Gelegees] (Eterna round: R96, puzzle: Same State NG 3) | 35.7 | 128 | 215 |  |  | 
29 | UCUUGGUUUUUGCUCGUUUUUUGUGUUGAACAUGAGGAUCACCCAUGUAUUGUACGGUCCGAUUUGAUAAUGGUCCG [JMF 21] (puzzle: Sensor for hsa-mir-208a) |  |  |  | 25.8 | 14.8 | 27
30 | GCUCGGCUGAUGGCCCACAUGAGGAUCACCCAUGUGACUGGGCAGGAUAUCUAGAUGCAGGAUGUAGAGAAGGGCCUGCCGAGC [SameState NG3 #41] (Eterna round: R96, puzzle: Same State NG 3) | 358 | 98.8 | 155 |  |  | 
31 | UGCUAUCGAAAACGAUAGCUAAAGUUUGUACAUGAGGAUCACCCAUGUUGUACAAGCUUUUUGCUCGUCUUAAAUAA [JL SD Zipper 16] (Eterna round: R96, puzzle: Sensor for hsa-mir-208a) | 67.1 | 15.2 | 62.4 |  |  | 
